Results from US20220153832A1 (PIONYR IMMUNOTHERAPEUTICS, published 2022).

T1: Cynomolgus MARCO, full length, on cells (cynomolgus, UniProt A0A2K5X0Z2 1-519)
T1 construct: whole, on cells; also called cyno MARCO; CyMARCO
T1 sequence: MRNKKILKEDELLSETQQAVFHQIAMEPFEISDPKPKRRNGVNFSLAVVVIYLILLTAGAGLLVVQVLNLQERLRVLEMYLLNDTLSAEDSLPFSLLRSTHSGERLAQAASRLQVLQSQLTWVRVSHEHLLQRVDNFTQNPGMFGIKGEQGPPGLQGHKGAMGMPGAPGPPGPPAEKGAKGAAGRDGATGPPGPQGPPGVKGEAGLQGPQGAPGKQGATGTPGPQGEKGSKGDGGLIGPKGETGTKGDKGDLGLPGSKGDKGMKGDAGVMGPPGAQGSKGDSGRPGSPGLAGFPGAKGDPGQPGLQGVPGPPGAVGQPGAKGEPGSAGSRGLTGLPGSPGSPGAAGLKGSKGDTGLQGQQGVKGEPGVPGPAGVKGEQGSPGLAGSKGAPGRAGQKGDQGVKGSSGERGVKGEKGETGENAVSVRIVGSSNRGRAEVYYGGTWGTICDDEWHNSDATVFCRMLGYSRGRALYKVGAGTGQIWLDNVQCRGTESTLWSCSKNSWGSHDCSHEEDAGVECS

T2: N-terminally polyhistidine tagged human MARCO ECD (147-520), recombinant (human, UniProt Q9UEW3 147-520)
T2 construct: also called PI-RG-3000; recombinant human MARCO; not shown: N-terminal polyhistidine tag
T2 sequence: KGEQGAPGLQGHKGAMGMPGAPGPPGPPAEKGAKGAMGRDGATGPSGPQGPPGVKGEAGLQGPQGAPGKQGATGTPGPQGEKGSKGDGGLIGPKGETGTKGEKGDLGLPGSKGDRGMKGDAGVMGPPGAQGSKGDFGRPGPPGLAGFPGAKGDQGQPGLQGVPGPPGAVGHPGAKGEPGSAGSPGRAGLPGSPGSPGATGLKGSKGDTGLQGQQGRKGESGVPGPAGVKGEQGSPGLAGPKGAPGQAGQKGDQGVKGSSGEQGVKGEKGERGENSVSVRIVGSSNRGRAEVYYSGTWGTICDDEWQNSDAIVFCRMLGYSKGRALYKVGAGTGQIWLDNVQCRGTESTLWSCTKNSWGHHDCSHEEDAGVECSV

T3: Human Macrophage Receptor with Collagenous Structure (MARCO), full length, on cells (human, UniProt Q9UEW3 1-520)
T3 construct: the cell type is named under assay; also called huMARCO; HuMARCO
T3 sequence: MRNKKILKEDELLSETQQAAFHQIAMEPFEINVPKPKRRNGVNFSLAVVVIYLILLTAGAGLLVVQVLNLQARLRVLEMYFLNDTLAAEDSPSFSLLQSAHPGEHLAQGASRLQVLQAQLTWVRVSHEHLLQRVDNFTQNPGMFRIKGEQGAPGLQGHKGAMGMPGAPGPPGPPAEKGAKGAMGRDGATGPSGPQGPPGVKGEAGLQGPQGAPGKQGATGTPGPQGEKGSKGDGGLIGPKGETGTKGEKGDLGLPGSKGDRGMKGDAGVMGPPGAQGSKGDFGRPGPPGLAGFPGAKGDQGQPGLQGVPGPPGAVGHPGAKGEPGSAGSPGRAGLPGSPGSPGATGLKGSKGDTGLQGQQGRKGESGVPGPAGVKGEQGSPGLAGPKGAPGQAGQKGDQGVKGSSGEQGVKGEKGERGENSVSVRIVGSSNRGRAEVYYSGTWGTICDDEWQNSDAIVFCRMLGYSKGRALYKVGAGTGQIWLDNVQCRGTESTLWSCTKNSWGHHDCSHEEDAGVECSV

T4: chimera Mouse MARCO CLD-human MARCO SRCR, on cells
T4 chain: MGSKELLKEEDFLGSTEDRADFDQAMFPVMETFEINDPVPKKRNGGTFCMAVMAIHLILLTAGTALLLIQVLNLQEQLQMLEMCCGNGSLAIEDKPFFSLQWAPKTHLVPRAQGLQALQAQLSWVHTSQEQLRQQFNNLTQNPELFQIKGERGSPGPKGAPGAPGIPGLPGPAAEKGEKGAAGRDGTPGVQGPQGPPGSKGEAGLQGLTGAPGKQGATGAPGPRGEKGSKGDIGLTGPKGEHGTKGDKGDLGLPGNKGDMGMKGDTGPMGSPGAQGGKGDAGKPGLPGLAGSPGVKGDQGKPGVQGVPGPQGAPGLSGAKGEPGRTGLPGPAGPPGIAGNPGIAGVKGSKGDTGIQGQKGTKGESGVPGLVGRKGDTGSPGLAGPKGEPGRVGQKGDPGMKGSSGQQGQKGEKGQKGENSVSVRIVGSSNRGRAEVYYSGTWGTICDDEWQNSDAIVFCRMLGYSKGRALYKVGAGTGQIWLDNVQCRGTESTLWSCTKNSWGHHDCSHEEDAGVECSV

B1: PI-HX-3011 (antibody, rat IgG2a)
heavy: QIQLVQSGPELKKPGESVKISCKASGYTFTDYAVNWVKQAPGNGLKWMGWINTQTGKPTYADDFKQRFVFSLETSASTSFLQINNLNIEDTATYFCTRDSYYYSSSLDYWGQGVMVTVSSAETTAPSVYPLAPGTALKSNSMVTLGCLVKGYFPEPVTVTWNSGALSSGVHTFPAVLQSGLYTLTSSVTVPSSTWSSQAVTCNVAHPASSTKVDKKIVPRECNPCGCTGSEVSSVFIFPPKTKDVLTITLTPKVTCVVVDISQNDPEVRFSWFIDDVEVHTAQTHAPEKQSNSTLRSVSELPIVHRDWLNGKTFKCKVNSGAFPAPIEKSISKPEGTPRGPQVYTMAPPKEEMTQSQVSITCMVKGFYPPDIYTEWKMNGQPQENYKNTPPTMDTDGSYFLYSKLNVKKETWQQGNTFTCSVLHEGLHNHHTEKSLSHSP
light: DIQMTQSPASLSASLGETVSIECLASAGISNDLAWYQQKSGKSPQLLIYAASRLQDGVPSRFSGSGSGTRFSLKISDMQPEDEADYFCQQSYKYPWTFGGGTKLELKRADAAPTVSIFPPSTEQLATGGASVVCLMNNFYPRDISVKWKIDGTERRDGVLDSVTDQDSKDSTYSMSSTLSLTKADYESHNLYTCEVVHKTSSSPVVKSFNRNEC
notes: Parental rat hybridoma, rat IgG2a
B2: PI-3030-AB (antibody, human IgG1, kappa)
heavy: not shown
light: DIQMTQSPASLSASLGETVSIECLASAGISNDLAWYQQKSGKSPQLLIYAASRLQDGVPSRFSGSGSGTRFSLKISDMQPEDEADYFCQQSYKYPWTFGGGTKLELKRTVAAPSVFIFPPSDEQLKSGTASVVCLLNNFYPREAKVQWKVDNALQSGNSQESVTEQDSKDSTYSLSSTLTLSKADYEKHKVYACEVTHQGLSSPVTKSFNRGEC
notes: Human IgG1 chimera of PI-HX-3011; also called HX3011-h1 Chimera hIgG1
B3: PI-3031-AB (antibody, human IgG1, kappa)
heavy: not shown
light: DIQMTQSPASLSASLGETVSIECLTSEGISNDLAWYQQKSGKSPQLLIYDASRLEDGVPSRFSGSGSGTRYSLKISGMQTEDEADYFCQQSYKYPLTFGSGTKLEIKRTVAAPSVFIFPPSDEQLKSGTASVVCLLNNFYPREAKVQWKVDNALQSGNSQESVTEQDSKDSTYSLSSTLTLSKADYEKHKVYACEVTHQGLSSPVTKSFNRGEC
notes: Human IgG1 chimera of PI-HX-3043; also called HX3043-h1 Chimera hIgG1

What was measured:
[1] = target: T1, Cynomolgus MARCO, full length, on cells; test: flow cytometry, 293T (CyMARCO)
Experimental: (§1) Supernatants were removed and cell pellets were resuspended in Ca²⁺+ and Mg²⁺+ Dulbecco's phosphate-buffered saline (D-PBS) at 1×10⁶ cells/ml. 100,000 cells/well were plated onto U-bottom 96-well plates for staining and all centrifugation steps were performed at 1500 rpm at 4° C. for 5 min and samples were kept protected from light throughout the protocol. Cells were pelleted and resuspended in 100 μl of Zombie NIR viability dye (BioLegend) prepared by diluting Zombie NIR dimethyl sulfoxide (DMSO) stock 1000-fold in D-PBS. Cells were stained by incubation for 10 min at room temperature (RT) in the dark, followed by quenching the staining reaction with the addition of 100 μl of Staining Medium (D-PBS containing 2% FBS and 2 mM ethylenediaminetetraacetic acid (EDTA). Cells were pelleted and resuspended in 100 μl of the different antibodies and hybridomas supernatants needed for screening and corresponding isotype controls in freshly prepared staining medium, such as PI-M014 and mIgG2b isotype. All mAbs were tested at the final top concentration of 100 nM (15 μg/ml) followed by an 8-point three-fold serial dilution, including 0 mg/ml control. Staining was carried out for 1 hour (hr) on ice, followed by 2 washes in Staining Medium. Cells were then pelleted and resuspended in 100 μl of allophycocyanin (APC)-conjugated goat anti-mouse IgG (Fc-specific) secondary antibody, prepared by 500-fold dilution of the antibody stocks in Staining Medium, and incubated for 30 min on ice. […] Flow cytometry data were analyzed using FlowJo software (version 10.6.1) and data were processed and further analyzed in Microsoft Excel and GraphPad Prism software (version 8). Half-maximal effective concentrations (EC₅₀) were calculated based on geometric mean fluorescence intensities (gMFI). In case when the plates were not able to be analyzed on the cytometer, cells were pelleted after the washes and fixed in 100 μl of 2% paraformaldehyde (PFA), prepared by diluting the 16% (w/v) stock (Thermo Fisher) in DPBS, for 15 min at RT. […]

[2] = target: T2, N-terminally polyhistidine tagged human …; test: ELISA on recombinant human MARCO, 10 mM EDTA
Experimental: (§2) After the plates were incubated at room temperature for 1 hour or 4° C. overnight, the plates were wash 3 times with ELISA wash buffer (PBS/0.05% TWEEN-20), then hybridoma supernatant (1:5 dilution) or purified antibody (1 ug) was diluted in DPBS/Ca2+/2% FBS, DPBS without Ca2+/2 mM EDTA/2% FBS, DPBS without Ca2+/10 mM EDTA/2% FBS, and DPBS without Ca2+/50 mM EDTA/2% FBS. Plates again were incubated at room temperature for 1 hour.

[3] = target: T2, N-terminally polyhistidine tagged human …; test: label-free kinetics (ProbeLife Gator), mAb captured, human MARCO
Experimental: (§3) The kinetics assay used either anti-mouse Fc or anti-human Fc probes to capture the anti-MARCO antibodies onto the probe, and then a five-step kinetic protocol was used to measure the affinity of the antibodies to the antigen, including the following steps: baseline, loading, baseline, association, and dissociation. The kinetics buffer (K buffer) provided by ProbeLife was used to establish the baseline for 60 seconds, and then the anti-mFc or anti-hFc probes were loaded with 200 nM of the antibodies for 120s until the capture reached saturation, measurement of the baseline in K buffer was performed for another 60s, followed by the association step using 200 nM antigen (human MARCO, mouse MARCO or cyno MARCO), and the dissociation step performed in K buffer for 5-10 minutes. The assay was done at 37° C. to maximize antibody:antigen dissociation.
Kinetics and epitope binning analysis of the newly generated anti-human MARCO antibodies was performed as described in Example 3.

[4] = target: T3, Human Macrophage Receptor with …; test: flow cytometry, 293T (HuMARCO)
Experimental: Supernatants were removed and cell pellets were resuspended in Ca²⁺+ and Mg²⁺+ Dulbecco's phosphate-buffered saline (D-PBS) at 1×10⁶ cells/ml. 100,000 cells/well were plated onto U-bottom 96-well plates for staining and all centrifugation steps were performed at 1500 rpm at 4° C. for 5 min and samples were kept protected from light throughout the protocol. Cells were pelleted and resuspended in 100 μl of Zombie NIR viability dye (BioLegend) prepared by diluting Zombie NIR dimethyl sulfoxide (DMSO) stock 1000-fold in D-PBS. Cells were stained by incubation for 10 min at room temperature (RT) in the dark, followed by quenching the staining reaction with the addition of 100 μl of Staining Medium (D-PBS containing 2% FBS and 2 mM ethylenediaminetetraacetic acid (EDTA). Cells were pelleted and resuspended in 100 μl of the different antibodies and hybridomas supernatants needed for screening and corresponding isotype controls in freshly prepared staining medium, such as PI-M014 and mIgG2b isotype. All mAbs were tested at the final top concentration of 100 nM (15 μg/ml) followed by an 8-point three-fold serial dilution, including 0 mg/ml control. Staining was carried out for 1 hour (hr) on ice, followed by 2 washes in Staining Medium. Cells were then pelleted and resuspended in 100 μl of allophycocyanin (APC)-conjugated goat anti-mouse IgG (Fc-specific) secondary antibody, prepared by 500-fold dilution of the antibody stocks in Staining Medium, and incubated for 30 min on ice. Plates were then washed two times with Staining Medium, followed by resuspension in 150 μl of the same buffer for acquisition on the flow cytometer (Attune NxT, Life Technologies). Flow cytometry data were analyzed using FlowJo software (version 10.6.1) and data were processed and further analyzed in Microsoft Excel and GraphPad Prism software (version 8). Half-maximal effective concentrations (EC₅₀) were calculated based on geometric mean fluorescence intensities (gMFI). In case when the plates were not able to be analyzed on the cytometer, cells were pelleted after the washes and fixed in 100 μl of 2% paraformaldehyde (PFA), prepared by diluting the 16% (w/v) stock (Thermo Fisher) in DPBS, for 15 min at RT. Cells were then pelleted and the fixative was removed, followed by resuspension in 150 μl of Staining Medium and stored at 4° C. until acquisition on the flow cytometer.

[5] = target: T2, N-terminally polyhistidine tagged human …; test: ELISA on recombinant human MARCO, 50 mM EDTA
Experimental: as §2

[6] = target: T2, N-terminally polyhistidine tagged human …; test: ELISA on recombinant human MARCO, 2 mM EDTA
Experimental: as §2

[7] = target: T2, N-terminally polyhistidine tagged human …; test: ELISA on recombinant human MARCO, 0 mM EDTA
Experimental: as §2

[8] = target: T1, Cynomolgus MARCO, full length, on cells; test: flow cytometry, cells overexpressing cyno MARCO
[9] = target: T2, N-terminally polyhistidine tagged human …; test: KD (nM) Human; method not given
[10] = target: T5, hVar3 (RG3036) (human, UniProt Q9UEW3 147-520); test: ELISA on hVar3
T5 construct: Human MARCO His-CLD-SRCR with Q452D, Y472S and K473S (already in the entry); also called recombinant human SRCR MARCO hVar3 protein

[11] = target: T2, N-terminally polyhistidine tagged human …; test: ProbeLife Gator
Experimental: as §3

[12] = target: T4, chimera Mouse MARCO CLD-human MARCO …; test: flow cytometry, cells overexpressing HuSRCR-mouse CLD chimera
[13] = target: T3, Human Macrophage Receptor with …; test: flow cytometry, cells overexpressing human MARCO
Experimental: as §1

Binder | EC50 [1] | ELISA signal (A450) [2] | koff [3] | kon [3] | EC50 [4] | ELISA signal (A450) [5] | ELISA signal (A450) [6] | ELISA signal (A450) [7] | EC50 [8] | Kd [9] | binding result [10] | koff [11] | EC50 [12] | EC50 [13]
B1 | 0.094 nM | 0.0811 | 0.000914 s⁻¹ | 401000 M⁻¹ s⁻¹ | 0.096 nM | 0.082 | 0.0636 | 1.17 |  |  |  |  |  | 
B2 |  |  |  |  |  |  |  |  | 0.38 nM | 0.44 nM | no binding | 0.00351 s⁻¹ | 0.17 nM | 0.55 nM
B3 |  |  |  |  |  |  |  |  | 1.09 nM | 0.6 nM | no binding | 0.00281 s⁻¹ | 1.07 nM | 1.6 nM
